A short description of the data set: eIF4E2 co-IP, 4E-T and GIGYF2 immunoblot. Conditions: glycan lost; control: MEST cDNA (wild type).

B1: mesoderm-specific transcript (MEST), also named PEG1: MEST N163Q (protein)
parent chain: MVRRDRLRRMREWWVQVGLLAVPLLAAYLHIPPPQLSPALHSWKSSGKFFTYKGLRIFYQDSVGVVGSPEIVVLLHGFPTSSYDWYKIWEGLTLRFHRVIALDFLGFGFSDKPRPHHYSIFEQASIVEALLRHLGLQNRRINLLSHDYGDIVAQELLYRYKQNRSGRLTIKSLCLSNGGIFPETHRPLLLQKLLKDGGVLSPILTRLMNFFVFSRGLTPVFGPYTRPSESELWDMWAGIRNNDGNLVIDSLLQYINQRKKFRRRWVGALASVTIPIHFIYGPLDPVNPYPEFLELYRKTLPRSTVSILDDHISHYPQLEDPMGFLNAYMGFINSF
Turning to B1, the “other: eIF4E2-4E-T/GIGYF2 complex formation in cells” value is listed as “increases”.

Values taken from publication PMC10556033.
